This passage reports Kd results from article PMC7018707, “FUS Recognizes G Quadruplex Structures Within Neuronal mRNAs”.

This series concerns the target full-length FUS wild type (UniProt P35637 1-526). The series is described as follows: steady-state fluorescence (2-AP); 150 mM KCl, 5-fold excess BSA; Fluorescence: 10 mM cacodylic acid pH 6.5, 150 mM KCl, 23 C, 150 or 200 nM RNA, 5-fold excess BSA or HCV peptide; pull-down: 5 uM probe annealed in the same buffer, room temperature, RIPA lysate and washes; native PAGE 20%, RNA:peptide 1:1 to 1:3. As to conditions: protein: recombinant, G quadruplex.

In general, Kd refers to a measure of binding affinity in units of concentration.

Chain of full-length FUS wild type (P35637 whole entry): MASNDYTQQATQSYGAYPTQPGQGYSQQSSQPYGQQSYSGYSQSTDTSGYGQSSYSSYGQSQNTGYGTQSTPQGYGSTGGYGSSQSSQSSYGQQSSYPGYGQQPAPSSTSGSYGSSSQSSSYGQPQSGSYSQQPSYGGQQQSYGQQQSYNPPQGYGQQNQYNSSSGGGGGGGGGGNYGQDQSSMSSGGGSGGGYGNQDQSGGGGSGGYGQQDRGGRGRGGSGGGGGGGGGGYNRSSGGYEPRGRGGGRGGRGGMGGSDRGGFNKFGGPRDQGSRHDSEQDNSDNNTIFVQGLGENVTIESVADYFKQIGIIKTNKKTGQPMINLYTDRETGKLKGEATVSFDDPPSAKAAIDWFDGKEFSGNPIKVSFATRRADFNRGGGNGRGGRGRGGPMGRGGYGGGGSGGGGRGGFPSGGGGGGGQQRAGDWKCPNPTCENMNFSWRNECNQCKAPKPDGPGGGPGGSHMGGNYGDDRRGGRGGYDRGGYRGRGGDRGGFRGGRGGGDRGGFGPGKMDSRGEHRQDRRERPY

As for GGGGUUGGGGAGGGUGUAGGGGGUGGGG (structured_RNA, A18 replaced by 2-aminopurine) [Shank1a GQ 2-AP], for the setting “label: 2-AP at position 18”, the Kd came out at 0.088 ± 0.027 µM.

For the molecule GGGAGGGAGGGUGGG (structured_RNA, A4 replaced by 2-aminopurine) [PSD-95 GQ2 2-AP], the Kd (label: 2-AP at position 4) was found to be 0.028 ± 0.01 µM.
